Assay results taken from US20240109957A1 (ANNEXON, published 2024).

Experiments:
[1] = biological target: T1, human complement C1q (Homo sapiens, UniProt P02745 23-245; P02746 28-253; P02747 29-245); experiment: cell-based or functional assay
[2] = biological target: T1, human complement C1q; experiment: Not stated; affinity given in descriptive text

T1 sequence (P02745 23-245 limits assumed, chain 1 of 3): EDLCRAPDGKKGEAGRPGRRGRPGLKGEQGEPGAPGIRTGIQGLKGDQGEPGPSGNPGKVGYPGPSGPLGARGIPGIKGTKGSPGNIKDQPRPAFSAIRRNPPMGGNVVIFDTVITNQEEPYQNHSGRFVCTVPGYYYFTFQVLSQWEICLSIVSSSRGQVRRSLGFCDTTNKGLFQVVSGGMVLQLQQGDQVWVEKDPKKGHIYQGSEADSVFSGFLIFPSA
T1 sequence (P02746 28-253 limits assumed, chain 2 of 3): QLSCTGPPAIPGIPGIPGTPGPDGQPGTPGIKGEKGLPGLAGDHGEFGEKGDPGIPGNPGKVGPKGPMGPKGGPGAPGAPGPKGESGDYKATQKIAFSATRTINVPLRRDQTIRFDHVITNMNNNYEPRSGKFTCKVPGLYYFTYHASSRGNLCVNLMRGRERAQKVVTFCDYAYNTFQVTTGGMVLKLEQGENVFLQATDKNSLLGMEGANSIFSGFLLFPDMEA
T1 sequence (P02747 29-245 limits assumed, chain 3 of 3): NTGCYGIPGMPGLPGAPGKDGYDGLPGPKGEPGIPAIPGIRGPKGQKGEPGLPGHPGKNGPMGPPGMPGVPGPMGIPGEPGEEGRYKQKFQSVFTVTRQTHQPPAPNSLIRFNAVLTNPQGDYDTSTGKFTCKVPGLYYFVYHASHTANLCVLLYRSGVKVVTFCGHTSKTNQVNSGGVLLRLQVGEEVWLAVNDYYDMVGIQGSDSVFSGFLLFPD

B1: FabA (anti-C1q antibody Fab fragment) (Fab)
heavy: QVQLVQSGAELKKPGASVKVSCKSSGYHFTSYWMHWVKQAPGQGLEWIGVIHPNSGSINYNEKFESRVTITVDKSTSTAYMELSSLRSEDTAVYYCAGERDSTEVLPMDYWGQGTTVTVSSASTKGPSVFPLAPSSKSTSGGTAALGCLVKDYFPEPVTVSWNSGALTSGVHTFPAVLQSSGLYSLSSVVTVPSSSLGTQTYICNVNHKPSNTKVDKKVEPKSCDKTHT
light: DVQITQSPSSLSASLGERATINCRASKSINKYLAWYQQKPGKAPKLLIYSGSTLQSGIPARFSGSGSGTDFTLTISSLEPEDFAMYYCQQHNEYPLTFGQGTKLEIKRTVAAPSVFIFPPSDEQLKSGTASVVCLLNNFYPREAKVQWKVDNALQSGNSQESVTEQDSKDSTYSLSSTLTLSKADYEKHKVYACEVTHQGLSSPVTKSFNRGEC
notes: Heavy chain Fab fragment truncated after the first constant domain of IgG1; also called anti-C1q Fab; anti-C1q monovalent Fab
In the case of B1, the “IC50 for inhibition of complement deposition (C4 and C3d on human RBCs, flow cytometry)” value [1] is reported as about 10 nM, the “IC50 for inhibition of hemolysis (CAD-sensitised human RBCs, normal human serum, absorbance at 415 nM)” value [1] is reported as about 10 nM and the Kd [2] is reported as 0.01 nM.
